Experimental data: article PMC4661071

Legend:
[1] = molecular target: wild-type EPCR on stably transfected CHO745 cells (UniProt Q9UNN8); experiment: flow cytometry on cells
[2] = molecular target: recombinant soluble EPCR (extracellular region, residues 18–210), biotinylated (UniProt Q9UNN8); experiment: BLI
[3] = molecular target: EPCR R81A on stably transfected CHO745 cells (UniProt Q9UNN8); experiment: flow cytometry on cells

## Var06CIDRα1.1 recombinant protein (domain or fragment)
[1]
  MFI of Fl-APC on the cells with 250 µg/ml of the CIDR domain (1329 without): 429
  double positive cells (CIDR and Fl-APC) at 250 µg/ml of the CIDR domain: 62%
[2]
  Kd: 98 nM

## Var07CIDRα1.4 recombinant protein (domain or fragment)
[1]
  MFI of Fl-APC on the cells with 100 µg/ml of the CIDR domain (1329 without): 385
  double positive cells (CIDR and Fl-APC) at 100 µg/ml of the CIDR domain: 28%
[3]
  decrease of binding relative to wild type EPCR: 80%

## Var19CIDRα1.1 recombinant protein (from UniProt A3R6S3 1-3373) (domain or fragment)
[1]
  MFI of Fl-APC on the cells with 250 µg/ml of the CIDR domain (1329 without): 746
  double positive cells (CIDR and Fl-APC) at 250 µg/ml of the CIDR domain: 69%
[3]
  decrease of binding relative to wild type EPCR: 90%

## activated protein C (APC), unlabeled (from UniProt P04070 43-197; P04070 43-197) (enzyme)
[1]
  mean fluorescence intensity (MFI) of APC labeling, without CIDR domains: 994
  percent of CHO745-EPCR cells labeled for APC, without CIDR domains: 76%

## fluorescein-labelled activated protein C (Fl-APC) (from UniProt P04070 43-197; P04070 43-197) (enzyme)
[1]
  MFI of Fl-APC, without CIDR domains: 1330
  percent of cells that bound 50 µg/ml Fl-APC, without CIDR domains: 78%
